Source: the RNAGym collection of RNA variant scans (doi:10.1073/pnas.2313332121)
Variants at the floor of the assay were thinned out.

B1: TPR 5TU (parent)
chain: GGAUCUUCUCGAUCUAACAAAAAAGACAAAUCUGCCACAAAGCUUGAGAGCAUCUUCGGAUGCAGAGGCGGCAGCCUUCGGUGGCGCGAUAGCGCCAACGUUCUCAACUAUGACACGCAAAACGCGUGCUCCGUUGAAUGGAGUUUAUCAUG

Variants of: B1
Test: polymerase ribozyme fitness, log enrichment relative to wild type (log ratio); higher = more active; in vitro selection for triplet polymerase activity
In short: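 Genotype fitness is the logarithm of its enrichment divided by wild-type enrichment, using inverse-variance-weighted averages of replicates. That logarithm is base 2. Enrichment was measured by Illumina sequencing of input and output libraries from one triplicate in vitro selection round, with frozen incubation at −7 °C, on PCR-built, transcribed mutant libraries of each subunit of a heterodimeric triplet polymerase ribozyme, retaining genotypes with ≥10 input reads and ≥1 read per output.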

Variant	polymerase ribozyme fitness (log ratio)
A19G A91C	-4.15
A21C G84U	-1.28
A19U A26C A40U C96A A121C	-2.54
A19U A30U U90G A91C C118G	≤ -4.2
A20U C93U	-1.76
A20U U77G C96U C99U	≤ -4.2
A19U C38G C43G G80C C87U C149G	≤ -4.2
A21C G25C C36G C93G A115U U134A U146A	≤ -4.2
A20C U44A A49C C96G C103A G141C	≤ -4.2
A20U U61A C75U G81U C99G U148G	≤ -4.2
A20U A47C U55A U56G C72U C87A G88C A115G	≤ -4.2
A20C G88A	-3.56
A20C C38G G70A C87U C108U	≤ -4.2
A20C G50U C95U A106U A137C	≤ -4.2
A20G A26G G65A C69A C105A	≤ -4.2
A19G A89C C105G	-1.99
A21G A26U C87A C125G U135C U146C	≤ -4.2
A20G G86U A91C U146G	≤ -4.2
A19G U77A C96U A113G	≤ -4.2
A19U A52G U56G G80C G84U A98C A110U	≤ -4.2
A20G A24U C35U G42C C79A C85G G88U A147G G152A	≤ -4.2

Variant	polymerase ribozyme fitness (log ratio)
A19U A21C A120C	-1.83
A20U G84A G124A A147G	-2.53
A20C G136C	-4.19
A20C A40U C95U	-0.74
A19U C27U A47U G50U C79G C93G G141A U145G	≤ -4.2
A19U A21C C96U C129A	-4.13
A19G C93A A113U G141C	≤ -4.2
A19U A24C G86A G140U	≤ -4.2
A20U G58A G81A	-0.836
A19U A37U G67C C85A U109G U148C	≤ -4.2
A20U A30C G70A	≤ -4.2
A20U A26C C32U A64C C75G U78G C123U U134C U145C	≤ -4.2
A19U G68C C85U	≤ -4.2
A21C U56G G62C U101G	-3.54
A19U C79U G83A G88C	≤ -4.2
A19U A142C	-1.11
A20C C38U C95U A122C U134C	-1.35
A19U G83C A89C A97G	-2.32
A20U A23C C72U G88C A91G C99U G140U	≤ -4.2
A21C C85U U102G C118U U144G U151A	≤ -4.2
A19U U53A G81U C96A	-2.73

Variant	polymerase ribozyme fitness (log ratio)
A19U U56A G86A A107G	≤ -4.2
A20G A91G	-2.54
A20U A52G U53A U55A C69A A110G U146G	≤ -4.2
A21C A52G C125A A142U	≤ -4.2
A20U G88C	-3.85
A19G A52U C96U A122G	-2.62
A20U G62C G71A G117U U135G	≤ -4.2
A19G U55G C57G A97G A106C	-2.96
A20C C51G C95G C149U	≤ -4.2
A21C G50C	-1.92
A19G G141U	1.06
A19G G141C	-0.542
A20G G140U	-3.41
A20G U53G G74A C93A	≤ -4.2
A20U G94A G112A	-3.86
A21C U53A C69U C125U	-3.94
A20U C35G A49C G94A G100C A119U A120G U134C	≤ -4.2
A20G C32U G84U C93G	-4.2
A19U C96U C125G	-0.589
A21C G58A C93U U102G C131G	≤ -4.2
A19U G94A A121U C125G	-0.351

Variant	polymerase ribozyme fitness (log ratio)
A21C A22U U53A C85A G124A	-2.42
A21C A47C A60G C93A	-1.98
A20C G86C C87U G88A C95G	≤ -4.2
A19G A52G G58U A64G U139A	≤ -4.2
A20U C93G A121U A142U	≤ -4.2
A20C C57G C85A C118U G143C	-3.96
A20G U55A G59U C76U C96A	-1.18
A21C A91C U127C	≤ -4.2
A20U U31C C116U A121U A150C	-3.57
A20C G92U C125A	-0.863
A19G C54A	-1.26
A21G A23G G58C G59A C85G C103A C108U	≤ -4.2
A21C C54A C95U C114G G136U	≤ -4.2
A19G C38U A40C C79A G86U C96G	≤ -4.2
A20G U82A C96G	0.0125
A21C C57A C93G C99G C118U U139A U144A A150C	≤ -4.2
A21C C87A	-4.15
A19U C57G A121G A150G	-1.93
A20C C96U A142C	-1.62
A20U G50U C76A G92C A110G C118G A137U	≤ -4.2
A19G C93U	-1.99
